The assay has as its target CD47 on the cell surface (A431, Raji, SKBR-3, NCI-H441, NK92MI-CD16a cells) (human) (UniProt Q08722). Put plainly: cell-based or functional assay.

Bounds are passed on as bounds.

Chain of Anti-PD-L1(12A4)-Fc1-D1-D2-D3-Fc2 (bispecific antibody) (chain): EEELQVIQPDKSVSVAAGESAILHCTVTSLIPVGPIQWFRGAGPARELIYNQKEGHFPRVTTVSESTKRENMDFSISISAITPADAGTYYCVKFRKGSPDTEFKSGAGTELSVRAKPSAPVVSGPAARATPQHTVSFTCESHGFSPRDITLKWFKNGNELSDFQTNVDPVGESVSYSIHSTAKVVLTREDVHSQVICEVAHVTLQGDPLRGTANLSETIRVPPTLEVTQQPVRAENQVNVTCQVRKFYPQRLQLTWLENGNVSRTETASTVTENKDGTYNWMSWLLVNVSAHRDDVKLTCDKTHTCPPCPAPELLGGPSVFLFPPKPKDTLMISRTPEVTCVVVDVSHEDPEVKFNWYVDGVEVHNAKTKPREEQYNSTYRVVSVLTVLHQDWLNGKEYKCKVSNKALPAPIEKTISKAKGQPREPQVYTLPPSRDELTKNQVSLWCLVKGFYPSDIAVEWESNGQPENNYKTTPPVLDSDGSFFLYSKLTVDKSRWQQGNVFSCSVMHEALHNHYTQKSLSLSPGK
Chain of Anti-PD-L1(12A4)-Fc1-D1-Fc2 (bispecific antibody) (chain): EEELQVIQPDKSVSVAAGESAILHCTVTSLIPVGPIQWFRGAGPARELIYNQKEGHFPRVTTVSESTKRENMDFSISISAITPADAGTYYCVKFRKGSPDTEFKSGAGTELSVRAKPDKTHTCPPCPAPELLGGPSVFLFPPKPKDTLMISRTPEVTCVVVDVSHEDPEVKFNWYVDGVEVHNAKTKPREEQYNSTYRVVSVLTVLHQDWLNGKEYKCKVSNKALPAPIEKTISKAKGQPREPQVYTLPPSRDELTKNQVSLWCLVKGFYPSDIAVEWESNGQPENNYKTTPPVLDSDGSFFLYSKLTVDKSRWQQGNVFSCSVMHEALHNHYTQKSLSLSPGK
Chain of Anti-PD-L1(12A4)-Fc1-D1-D2-Fc2 (bispecific antibody) (chain): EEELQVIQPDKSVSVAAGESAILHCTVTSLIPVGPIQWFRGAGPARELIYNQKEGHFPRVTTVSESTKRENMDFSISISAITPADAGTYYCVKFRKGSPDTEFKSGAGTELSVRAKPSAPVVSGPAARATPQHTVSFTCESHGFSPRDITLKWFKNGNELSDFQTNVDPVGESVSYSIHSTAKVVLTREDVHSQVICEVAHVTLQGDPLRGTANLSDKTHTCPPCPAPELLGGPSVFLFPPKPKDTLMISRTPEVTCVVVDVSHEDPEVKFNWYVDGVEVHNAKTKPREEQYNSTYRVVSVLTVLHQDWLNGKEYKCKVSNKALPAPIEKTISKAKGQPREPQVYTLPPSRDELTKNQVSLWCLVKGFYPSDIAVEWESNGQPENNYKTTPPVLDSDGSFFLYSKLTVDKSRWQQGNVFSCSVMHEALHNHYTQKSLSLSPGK

As to “Anti-PD-L1(12A4)-Fc1-D1-Fc2 (bispecific antibody)”, the toxic side effects caused by NK cells (ADCC on NK92MI-CD16a cells), reduction against the D1^m proteins is > 1000 fold.

Turning to “Anti-PD-L1(12A4)-Fc1-D1-D2-D3-Fc2 (bispecific antibody)”, the toxic side effects caused by NK cells (ADCC on NK92MI-CD16a cells), reduction against the D1^m proteins was > 1000 fold.

Regarding “Anti-PD-L1(12A4)-Fc1-D1-D2-Fc2 (bispecific antibody)”, the toxic side effects caused by NK cells (ADCC on NK92MI-CD16a cells), reduction against the D1^m proteins was > 1000 fold.

Values taken from patent publication US20200157223A1.
